Source: patent publication US20230110702A1 (IMMUNEONCO BIOPHARMACEUTICALS SHANGHAI, published 2023)
Each block holds one binder with its values, some of them ahead of it.

What was measured:
CD47 [1] = target: T1, CD47 (UniProt Q08722 19-323, limits assumed); experiment: flow cytometry on CD38^-CD47^+ Jurkat cells, FITC anti-human IgG-Fc
T1 construct: whole, on cells; also called CD47 on CD38^-CD47^+ Jurkat cells; CD47 on CD38^+CD47^+ NCI-H929 cells
Protocol: Cells were washed with cold 1% BSA-PBS twice, and then incubated with FITC-conjugated secondary antibody against human IgG-Fc (Cat #F9512, Sigma) for 45 min. Cells were washed twice and re-suspended in 200 μl PBS. Then, the cells were subject to FACS analysis using a flow cytometer (Merck Millipore, Guava® easyCyte 5HT).

CD47 [2] = target: T1, CD47; experiment: FACS competition against SIRPα-mFc (3 µg/ml) on CD47^+CD38^+ NCI-H929 cells, PE anti-mouse IgG-Fc
Protocol: The resultant mixtures were added to the wells of a 96-well plate each containing 50 μl 1×10⁶/ml CD47⁺CD38⁺ NCI-H929 cells, and the plate was incubated at 4° C. for 45 min. […] Cells were washed twice, re-suspended in 200 μl PBS, and subject to FACS analysis.

EC50 (CD47 [1]): 14.1 nM
IC50 (CD47 [2]): 30.7 nM
B1: IMM5601 (bispecific antibody, human IgG1, kappa)
heavy: not shown
light: DIVMTQSHLSMSTSLGDPVSITCKASQDVSTVVAWYQQKPGQSPRRLIYSASYRYIGVPDRFTGSGAGTDFTFTISSVQAEDLAVYYCQQHYSPPYTFGGGTKLEIKRTVAAPSVFIFPPSDEQLKSGTASVVCLLNNFYPREAKVQWKVDNALQSGNSQESVTEQDSKDSTYSLSSTLTLSKADYEKHKVYACEVTHQGLSSPVTKSFNRGEC
notes: also called recombinant fusion protein; SIRPαD1-linker-anti-CD38 heavy chain + anti-CD38 light chain

EC50 (CD47 [1]): 21.9 nM
B2: IMM5602 (bispecific antibody, human IgG1, kappa)
heavy: QVQLVQSGAEVAKPGTSVKLSCKASGYTFTDYWMQWVKQRPGQGLEWIGTIYPGDGDTGYAQKFQGKATLTADKSSKTVYMHLSSLASEDSAVYYCARGDYYGSNSLDYWGQGTSVTVSSASTKGPSVFPLAPSSKSTSGGTAALGCLVKDYFPEPVTVSWNSGALTSGVHTFPAVLQSSGLYSLSSVVTVPSSSLGTQTYICNVNHKPSNTKVDKRVEPKSCDKTHTCPPCPAPELLGGPSVFLFPPKPKDTLMISRTPEVTCVVVDVSHEDPEVKFNWYVDGVEVHNAKTKPREEQYNATYRVVSVLTVLHQDWLNGKEYKCKVSNKALPAPIAATISKAKGQPREPQVYTLPPSREEMTKNQVSLTCLVKGFYPSDIAVEWESNGQPENNYKTTPPVLDSDGSFFLYSKLTVDKSRWQQGNVFSCSVMHEALHNHYTQKSLSLSPGK
light: not shown
notes: also called recombinant fusion protein; anti-CD38 heavy chain + SIRPαD1-linker-anti-CD38 light chain
